# Assay results published in patent US5763240.
# Molecular target: RecA (UniProt P0A7G6)
# Settings: FITC-avidin confocal microscopy, permeabilized HEp-2 nuclei in agarose, 37 C; no signal without recA or with BSA
# Sequence of RecA (P0A7G6 2-353): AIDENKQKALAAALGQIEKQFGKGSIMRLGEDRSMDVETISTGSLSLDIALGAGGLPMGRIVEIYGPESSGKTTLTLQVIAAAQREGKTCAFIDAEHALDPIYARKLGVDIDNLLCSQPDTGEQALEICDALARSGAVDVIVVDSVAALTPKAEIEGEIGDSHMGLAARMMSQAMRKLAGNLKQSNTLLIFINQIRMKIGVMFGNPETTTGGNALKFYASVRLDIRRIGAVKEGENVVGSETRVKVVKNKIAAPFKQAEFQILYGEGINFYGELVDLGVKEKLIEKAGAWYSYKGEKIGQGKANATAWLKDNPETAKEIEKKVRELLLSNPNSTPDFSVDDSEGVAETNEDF
substance,measurement,value
"human chromosome 1 alpha-satellite targeting polynucleotides (nick-translated pUC 1.77, denatured)",binding (% nuclei with signal),> 25
